Test results taken from article PMC9352680, “A comprehensive thermodynamic model for RNA binding by the Saccharomyces cerevisiae Pumilio protein PUF4”.
Residue numbers refer to the chain shown, from its start. Numbers in names are those of the source.

T1: PUF4 RNA-binding domain (Saccharomyces cerevisiae, UniProt P25339 537-888)
T1 sequence: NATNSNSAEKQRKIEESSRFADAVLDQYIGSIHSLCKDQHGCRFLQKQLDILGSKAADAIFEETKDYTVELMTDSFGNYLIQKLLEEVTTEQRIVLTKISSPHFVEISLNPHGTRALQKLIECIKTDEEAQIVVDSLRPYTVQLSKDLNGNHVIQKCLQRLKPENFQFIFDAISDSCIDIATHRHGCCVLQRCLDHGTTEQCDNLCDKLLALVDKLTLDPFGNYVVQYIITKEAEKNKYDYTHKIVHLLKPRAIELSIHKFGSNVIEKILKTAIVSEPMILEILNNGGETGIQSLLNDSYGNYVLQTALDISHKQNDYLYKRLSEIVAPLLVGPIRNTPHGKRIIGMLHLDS

B1: Ic_S2_P5E.1_K5.1_C5.1_H5.1_A5.1_[T5G]_[T6C]_[A7T]_F5.1_[T8C]_[A10C]_T5.1 (ssRNA)
RNA: UUUGAUUAAUAUGAUAUCGUUCUUUCUUGUAGCUCUCUUCUUUCUCGAUAUCAUAUUAAUCUUU
B2: Ic_S2_P5E.1_K5.1_C5.1_H5.1_A5.1_[A7T]_F5.1_[T8A]_[A10G]_T5.1 (ssRNA)
RNA: B1 RNA with G32U, C33U, C35A, C37G
B3: Ic_S2_P5E.1_K5.1_C5.1_H5.1_A5.1_[T5G]_[T6C]_F5.1_[T8G]_[T9C]_[A10T]_T5.1 (ssRNA)
RNA: B1 RNA with U34A, C35G, U36C, C37U
B4: Ic_S2_P5E.1_K5.1_C5.1_H5.1_A5.1_[T6C]_[A7T]_F5.1_[T8A]_[T9G]_[A10C]_T5.1 (ssRNA)
RNA: B1 RNA with G32U, C35A, U36G
B5: Ic_S2_P5E.1_K5.1_C5.1_H5.1_A5.1_[T6G]_[A7T]_F5.1_[T8C]_[T9C]_[A10T]_T5.1 (ssRNA)
RNA: B1 RNA with G32U, C33G, U36C, C37U
B6: Ic_S2_P5E.1_K5.1_C5.1_H5.1_A5.1_[A7T]_F5.1_[T8C]_[T9A]_T5.1 (ssRNA)
RNA: B1 RNA with G32U, C33U, U36A, C37A
B7: Ic_S2_P5E.1_K5.1_C5.1_H5.1_A5.1_[T6C]_[A7T]_F5.1_[T8A]_[A10C]_T5.1 (ssRNA)
RNA: B1 RNA with G32U, C35A
B8: Ic_S2_P5E.1_K5.1_C5.1_H5.1_A5.1_[T5G]_[T6C]_F5.1_[T8C]_[T9C]_[A10G]_T5.1 (ssRNA)
RNA: B1 RNA with U34A, U36C, C37G
B9: Ic_S2_P5E.1_K5.1_C5.1_H5.1_A5.1_[T5A]_[A7T]_F5.1_[T8G]_[T9C]_[A10C]_T5.1 (ssRNA)
RNA: B1 RNA with G32A, C33U, C35G, U36C
B10: Ic_S2_P5E.1_K5.1_C5.1_H5.1_A5.1_[T6A]_[A7G]_F5.1_[T9C]_[A10C]_T5.1 (ssRNA)
RNA: B1 RNA with G32U, C33A, U34G, C35U, U36C
B11: Ic_S2_P5E.1_K5.1_C5.1_H5.1_A5.1_[T5C]_F5.1_[T8C]_[T9G]_[A10C]_T5.1 (ssRNA)
RNA: B1 RNA with G32C, C33U, U34A, U36G
B12: Ic_S2_P5E.1_K5.1_C5.1_H5.1_A5.1_[T5G]_[T6C]_F5.1_[T8C]_[A10G]_T5.1 (ssRNA)
RNA: B1 RNA with U34A, C37G
B13: Ic_S2_P5E.1_K5.1_C5.1_H5.1_A5.1_[T6C]_F5.1_[T8A]_[A10T]_T5.1 (ssRNA)
RNA: B1 RNA with G32U, U34A, C35A, C37U
B14: Ic_S2_P5E.1_K5.1_C5.1_H5.1_A5.1_[T5G]_[T6C]_[A7T]_F5.1_[A10T]_T5.1 (ssRNA)
RNA: B1 RNA with C35U, C37U
B15: Ic_S2_P5E.1_K5.1_C5.1_H5.1_A5.1_[T6G]_[A7C]_F5.1_[T8C]_[T9G]_[A10G]_T5.1 (ssRNA)
RNA: B1 RNA with G32U, C33G, U34C, U36G, C37G
B16: Ic_S2_P5E.1_K5.1_C5.1_H5.1_A5.1_[T6A]_[A7C]_F5.1_[T9A]_[A10C]_T5.1 (ssRNA)
RNA: B1 RNA with G32U, C33A, U34C, C35U, U36A
B17: Ic_S2_P5E.1_K5.1_C5.1_H5.1_A5.1_[T5C]_[T6A]_[A7C]_F5.1_[T9C]_T5.1 (ssRNA)
RNA: B1 RNA with G32C, C33A, U34C, C35U, U36C, C37A
B18: Ic_S2_P5E.1_K5.1_C5.1_H5.1_A5.1_[T5C]_[T6G]_[A7T]_F5.1_[T8C]_[T9G]_[A10T]_T5.1 (ssRNA)
RNA: B1 RNA with G32C, C33G, U36G, C37U
B19: Ic_S2_P5E.1_K5.1_C5.1_H5.1_A5.1_[T5C]_[T6A]_[A7C]_F5.1_[T8C]_[T9C]_[A10C]_T5.1 (ssRNA)
RNA: B1 RNA with G32C, C33A, U34C, U36C
B20: Ic_S2_P5E.1_K5.1_C5.1_H5.1_A5.1_[T6A]_[A7C]_F5.1_[T8C]_[T9A]_[A10C]_T5.1 (ssRNA)
RNA: B1 RNA with G32U, C33A, U34C, U36A
B21: Ic_S2_P5E.1_K5.1_C5.1_H5.1_A5.1_[T5G]_[T6C]_[A7C]_F5.1_[T9A]_[A10T]_T5.1 (ssRNA)
RNA: B1 RNA with U34C, C35U, U36A, C37U
B22: Ic_S2_P5E.1_K5.1_C5.1_H5.1_A5.1_[T5C]_[T6A]_[A7C]_F5.1_[T8C]_[T9A]_[A10T]_T5.1 (ssRNA)
RNA: B1 RNA with G32C, C33A, U34C, U36A, C37U
B23: Ic_S2_P5E.1_K5.1_C5.1_H5.1_A5.1_[T5C]_[T6A]_[A7T]_F5.1_[T8G]_T5.1 (ssRNA)
RNA: B1 RNA with G32C, C33A, C35G, C37A
B24: Ic_S2_P5E.1_K5.1_C5.1_H5.1_A5.1_[T5C]_[A7G]_F5.1_[T8G]_[T9C]_[A10T]_T5.1 (ssRNA)
RNA: B1 RNA with G32C, C33U, U34G, C35G, U36C, C37U
B25: Ic_S2_P5E.1_K5.1_C5.1_H5.1_A5.1_[T5C]_[T6C]_F5.1_[T9A]_[A10C]_T5.1 (ssRNA)
RNA: B1 RNA with G32C, U34A, C35U, U36A

molecular target: T1, PUF4 RNA-binding domain; assay: Mg; RNA-MaP; 20 mM Na-HEPES pH 7.4, 30 mM KOAc, 0.75 mM MgCl2, 0.1% Tween-20, 5% glycerol, 0.1 mg/mL BSA, 2 mM DTT; 25 C; 0.0125-409.6 nM protein; conditions: tags: N-His6-TEV cleaved; C-SNAP kept, Cy3B-labelled; label: tethered on chip by stalled RNA polymerase

Binder | Kd
UCUCUUUGCAUAUAAUCUCUU (ssRNA) [Ib_S1_P4E.1_K4.1_C4.1_H4.1_[T3C]_A4.1_F4.1_[T8A]_T4.1] | > 2300 nM
UCUCUUUAUAUAUAAUCUCUU (ssRNA) [Ib_S1_P4E.1_K4.1_C4.1_H4.1_[G2A]_A4.1_F4.1_[T8A]_T4.1] | 532 nM
UCUCUUUUUAUAUAAUCUCUU (ssRNA) [Ib_S1_P4E.1_K4.1_C4.1_H4.1_[G2T]_A4.1_F4.1_[T8A]_T4.1] | 2120 nM
UCUCUUUGUGUAUCAUCUCUU (ssRNA) [Ib_S1_P4E.1_K4.1_C4.1_H4.1_[A4G]_A4.1_F4.1_[T8C]_T4.1] | 30.1 nM
B1 | 383 nM
B2 | 15.8 nM
B3 | 905 nM
B4 | 23.8 nM
B5 | 21.6 nM
B6 | 389 nM
B7 | 12.7 nM
B8 | 1330 nM
B9 | 622 nM
B10 | 17.8 nM
B11 | 641 nM
B12 | 794 nM
B13 | 29.9 nM
B14 | 37.5 nM
B15 | 1340 nM
B16 | 1.15 nM
B17 | 7.78 nM
B18 | 207 nM
B19 | 67.3 nM
B20 | 31.2 nM
B21 | 4.62 nM
B22 | 14.9 nM
B23 | 2.58 nM
B24 | 1660 nM
B25 | 1.13 nM
